Source: US6602854B1, “Branched multimeric Apo A-I agonist compounds” (priority 1997, dated 2003)
Where no end group is shown, it is not given here. [ ]: non-standard residue; d: D form. Aib = CC(C)(N)C(=O)O

Assay: Circular dichroism: degree of helicity (free, SUVs, micelles, TFE)
Conditions: for He (%) free: percent helicity of free, unbound peptide; for He (%) TFE: percent helicity of peptide-TFE solution; for He (%) mics: percent helicity of peptide-micelle complexes; for He (%) SUVs: percent helicity of peptide-SUV complexes
Procedure: Far UV circular dichroism spectra were recorded between 190 and 260 nm (in 0.5 nm or 0.2 nm increments) with a AVIV62DS spectrometer (AVIV Associates, Lakewood, N.J., USA) equipped with a thermoelectric cell holder and sample changer. The instrument was calibrated with (+)-10-camphoric acid. Between one and three scans were collected for each sample, using 10 cm, 5 cm, 1 cm and 0.1 cm path length quartz Suprasil cells, respectively, for peptide concentrations of 10^−7 M to 10^−4 M. The bandwidth was fixed at 1.5 nm and the scan speed to 1 s per wavelength step. The reported data are the mean of at least 2 or 3 independent measurements.
After background substraction, spectra were converted to molar ellipticity (θ) per residue in deg. […] dmol^−1. The peptide concentration was determined by amino acid analysis and also by absorption spectrometry on a Perkin Elmer Lambda 17 UV/Visible spectrophotometer when the peptide contained a chromophore (tryptophane, dansyl, naphtylalanine).
CD spectra were obtained with free, unbound peptide (5 μM in 5 mM phosphate buffer, pH 7.4); with peptide-SUV complexes (20:1 EPC:Chol., Ri=30 and Ri=50); with peptide-micelle complexes (1-myristoyl-2-hydroxy-sn-glycero-3-phosphatidyl choline, Ri=100); and with free, unbound peptide in the presence of 2,2,2-trifluoroethanol (TFE) (5 μM peptide, 90% vol TFE).
The SUVs were obtained by dispersing the lipids (10 mM, 20:1 EPC:Chol., Avanti Polar Lipids, Ala.) in phosphate buffer (5 mM, pH 7.4) with bubbling N2 for 5 min., followed by sonication (1.5 hr.) in a bath sonicator. The homogeneity of the preparation was checked by FPLC.
The micelles were obtained by dispersing the lipid (6 mM 1-myristoyl-2-hydroxy-sn-glycero-3-phosphatidyl choline, Avanti Polar Lipids, AL) in phosphate buffer (5 mM, pH 7.4) with bubbling N2 for 5 min., followed by vortexing.
To obtain the peptide-SUV complexes, SUVs were added to the peptide (5 μM in 5 mM phosphate buffer, pH 7.4) at a phospholipid-peptide molar ratio (Ri) of 30 or 50.
To obtain the peptide-micelle complexes, micelles were added to the peptide (5 μM in 5 mM phosphate buffer, pH 7.4) at a Ri of 100.
All spectra were recorded at 37° C. The stability of peptide 4 (SEQ ID NO:4) as a function of temperature (both free in buffer and in micelles) was determined by recording spectra at a series of different temperatures.
The degree of helicity of peptide 4 (SEQ ID NO:4) as a function of concentration was also determined.
The degree of helicity of the peptides in the various conditions was determined from the mean residue ellipticity at 222 nm (Chen et al., 1974, Biochemistry 13:3350-3359) or by comparing the CD spectra obtained to reference spectra available on databases (16 helical reference spectra from Provencher & Glockner, 1981, Biochemistry 20:33-37; denatured protein reference spectra from Venyaminov et al., 1993, Anal. Biochem. 214:17-24) using the CONTIN curve-fitting algorithm version 2DP, CD-1 pack (Aug. 1982) (Provencher, 1982, Comput. Phys. Commun. 27:213-227, 229-242). Acceptable fit was determined using the statistical analysis methodology provided by the CONTIN algorithm.

31 (PVLDLFLELLNE[Aib]LEALKQKLK) [compound 31]
He (%) free: 49% | He (%) TFE: 90% | He (%) mics: 98%

35 (PVLDWFRELLNELLEALKQKLK) [compound 35]
He (%) SUVs: 61% | He (%) mics: 59%

36 (PLLELLKELLQELLEALKQKLK) [compound 36]
He (%) free: 95% | He (%) TFE: 95% | He (%) mics: 100%

37 (PVLDLFREWLNELLEALKQKLK) [compound 37]
He (%) free: 65% | He (%) SUVs: 76% | He (%) TFE: 73% | He (%) mics: 75%

38 (PVLDLFRELLNE[Aib]LEAWKQKLK) [compound 38]
He (%) free: 25% | He (%) SUVs: 21% | He (%) TFE: 49% | He (%) mics: 49%

39 (PVLDLFRELLEELLKALKKKLK) [compound 39]
He (%) free: 66% | He (%) SUVs: 68% | He (%) TFE: 72% | He (%) mics: 69%

40 (PVLDLFNELLRELLEALQKKLK) [compound 40]
He (%) free: 66% | He (%) SUVs: 79% | He (%) TFE: 77% | He (%) mics: 84%

41 (PVLDLWRELLNE[Aib]LEALKQKLK) [compound 41]
He (%) free: 53% | He (%) SUVs: 85% | He (%) TFE: 69% | He (%) mics: 73%

42 (PVLDEFREKLNE[Aib]WEALKQKLK) [compound 42]
He (%) free: 15% | He (%) SUVs: 27% | He (%) TFE: 76% | He (%) mics: 74%

45 (PVLDEFREKLNE[Aib]LEALKQKLK) [compound 45]
He (%) TFE: 86% | He (%) mics: 84%

46 (PVLDLFREKLNE[Aib]LEALKQKLK) [compound 46]
He (%) free: 30% | He (%) SUVs: 58% | He (%) TFE: 85% | He (%) mics: 86%

49 (PVLDLFRNLLEKLLEALEQKLK) [compound 49]
He (%) free: 57% | He (%) SUVs: 52% | He (%) TFE: 57% | He (%) mics: 65%

50 (PVLDLFRELLWE[Aib]LEALKQKLK) [compound 50]
He (%) free: 68% | He (%) SUVs: 89% | He (%) TFE: 76% | He (%) mics: 84%

51 (PVLDLFWELLNE[Aib]LEALKQKLK) [compound 51]
He (%) free: 63% | He (%) SUVs: 81% | He (%) TFE: 73% | He (%) mics: 82%

54 (PVLDLFRELLNEWLEALKQKLK) [compound 54]
He (%) free: 76% | He (%) SUVs: 84% | He (%) TFE: 78% | He (%) mics: 71%

55 (PLFRELLNELLEALKQKLK) [compound 55]
He (%) free: 38% | He (%) SUVs: 78% | He (%) TFE: 75% | He (%) mics: 72%

60 (PVLDLFRELLNELLEALKQ) [compound 60]
He (%) free: 39% | He (%) SUVs: 66% | He (%) TFE: 84% | He (%) mics: 83%

62 (PVLDEWREKLNE[Aib]LEALKQKLK) [compound 62]
He (%) free: 15% | He (%) SUVs: 43% | He (%) mics: 85%

66 (PVLDLFRNLLEELLEALQKKLK) [compound 66]
He (%) free: 64% | He (%) SUVs: 66% | He (%) TFE: 70% | He (%) mics: 82%

67 (VLDLFRELLNELLEALKQKLK) [compound 67]
He (%) free: 81% | He (%) SUVs: 84% | He (%) TFE: 94% | He (%) mics: 90%

70 (PVLDEFRELLYE[Aib]LEALKQKLK) [compound 70]
He (%) free: 27% | He (%) SUVs: 33% | He (%) TFE: 66% | He (%) mics: 78%

76 (PVLDEFRELLFE[Aib]LEALKQKLK) [compound 76]
He (%) free: 41% | He (%) TFE: 66% | He (%) mics: 88%

85 (PLDLFRELLNELLEALKQKLK) [compound 85]
He (%) free: 58% | He (%) SUVs: 64% | He (%) TFE: 69% | He (%) mics: 61%

91 (PVLDEFRELLNE[Aib]LEALKQKLK) [compound 91]
He (%) free: 43% | He (%) TFE: 100% | He (%) mics: 100%

99 (KLKQKLAELLENLLERFLDLVP) [compound 99]
He (%) free: 72% | He (%) SUVs: 80% | He (%) TFE: 80% | He (%) mics: 88%

104 (PLLNELLEALKQKLK) [compound 104]
He (%) free: 21% | He (%) SUVs: 29% | He (%) TFE: 55% | He (%) mics: 49%

105 (PAADAFREAANEAAEAAKQKAK) [compound 105]
He (%) free: 29% | He (%) SUVs: 32% | He (%) TFE: 65% | He (%) mics: 28%

108 (PVLDLFRWLLNE[Aib]LEALKQKLK) [compound 108]
He (%) free: 28% | He (%) TFE: 54% | He (%) mics: 55%

113 (PVLDEFREKLNEPLEALKQKLK) [compound 113]
He (%) free: 6% | He (%) mics: 22%

146 (PVLELFENLLERLLDALQKKLK) [compound 146]
He (%) free: 97% | He (%) SUVs: 100% | He (%) TFE: 95% | He (%) mics: 100%

148 (PVLELFENLLERLGDALQKKLK) [compound 148]
He (%) free: 10% | He (%) SUVs: 23% | He (%) TFE: 80% | He (%) mics: 76%

149 (PVLELFENLWERLLDALQKKLK) [compound 149]
He (%) free: 28% | He (%) TFE: 47% | He (%) mics: 54%

154 (PVLELFENLLERGLDALQKKLK) [compound 154]
He (%) free: 13% | He (%) SUVs: 25% | He (%) TFE: 80% | He (%) mics: 76%
